“And” between values parts separate entries of the source, which are not always exact repeats. Identical values can stand only once.

The values that follow come from article PMC7081908.

The target in the experiment is IgG-CD4 protein (fusion protein of human CD4 domains 1 and 2 with human IgG1 Fc at the C terminus) (human). Nature of the experiment: BLI; Octet QKe; IgG-CD4 loaded onto protein G sensors at 20 ug/ml in ForteBio kinetics buffer; serial dilutions of gp120 (600 nM to 0.4 nM) in solution; Kd = koff/kon, 1:1 fitting model; two GMP lots of each gp120.
Turning to “GMP-grade gp120 protein, HIV-1 clade AE consensus”, the dissociation constant (Kd) is 0.0246 µM and 0.0184 µM.

As for “GMP-grade gp120 protein, HIV-1 clade B isolate JRFL (natural protein)”, the Kd was 0.00744 µM and 0.00487 µM.

With “GMP-grade gp120 protein, HIV-1 clade C isolate 93MW965.26 (natural protein)”, the Kd is 0.157 µM and 0.115 µM.

As a reminder, the Kd is the constant that tells how readily two partners part at equilibrium. A high value points to weaker binding.
